What was measured:
[1] = system: patients with a myeloproliferative disorder; settings: cited from earlier work; for toxicity: patients with splenomegaly
[2] = system: myelofibrosis patients; settings: anemic myelofibrosis patients; cited from earlier work
[3] = target: T1, human TGFβ1 (Homo sapiens, UniProt P01137); assay: Reporter gene assay in A549 cells (pGL3(CAGA)12), inhibition of TGFβ1 activity; format: cell-based; settings: for IC50: A549 reporter gene assay, hTGFβ1 640 pg/ml; for inhibition of TGFβ1 activity / signaling (in words): cell-based reporter assay
T1 construct: purchased PeproTech
Text: (§1) A reporter gene assay in A549 cells was used to determine the ability of hTβRII-hFc variants to inhibit activity of TGFβ1, TGFβ2, and TGFβ3. This assay is based on a human lung carcinoma cell line transfected with a pGL3(CAGA)12 reporter plasmid (Dennler et al., 1998, EMBO 17: 3091-3100) as well as a Renilla reporter plasmid (pRLCMV) to control for transfection efficiency. The CAGA motif is present in the promoters of TGFβ-responsive genes (for example, PAI-1), so this vector is of general use for factors signaling through SMAD2 and SMAD3.
(§2) On the first day of the assay, A549 cells (ATCC®: CCL-185™) were distributed in 48-well plates at 6.5×10^4 cells per well. On the second day, a solution containing 10 μg pGL3(CAGA)12, 100 ng pRLCMV, 30 μl X-tremeGENE 9 (Roche Applied Science), and 970 μl OptiMEM (Invitrogen) was preincubated for 30 min, then added to Eagle's minimum essential medium (EMEM, ATCC®) supplemented with 0.1% BSA, which was applied to the plated cells (500 μl/well) for incubation overnight at […]. On the third day, medium was removed, and cells were incubated overnight at 37° C. with a mixture of ligands and inhibitors prepared as described below.
(§3) Serial dilutions of test articles were made in a 48-well plate in a 200 μl volume of assay buffer (EMEM+0.1% BSA). An equal volume of assay buffer containing the test ligand was added to obtain a final ligand concentration equal to the EC50 determined previously. Human TGFβ 1, human TGFβ2, and human TGFβ3 were obtained from PeproTech. Test solutions were incubated at 37° C. for 30 minutes, then 250 μl of the mixture was added to all wells. Each concentration of test article was determined in duplicate. After incubation with test solutions overnight, cells were rinsed with phosphate-buffered saline, then lysed with passive lysis buffer (Promega E1941) and stored overnight at −70° C. On the fourth and final day, plates were warmed to room temperature with gentle shaking. Cell lysates were transferred in duplicate to a chemiluminescence plate (96-well) and analyzed in a luminometer with reagents from a Dual-Luciferase Reporter Assay system (Promega E1980) to determine normalized luciferase activity.

[4] = target: T2, human TGFβ3 (Homo sapiens, UniProt P10600); assay: Reporter gene assay in A549 cells (pGL3(CAGA)12), inhibition of TGFβ3 activity; format: cell-based; settings: for inhibition of TGFβ3 activity / signaling (in words): cell-based reporter assay; for IC50: A549 reporter gene assay, hTGFβ3 270 pg/ml
T2 construct: purchased PeproTech
T2 sequence (P10600 301-412 limits assumed): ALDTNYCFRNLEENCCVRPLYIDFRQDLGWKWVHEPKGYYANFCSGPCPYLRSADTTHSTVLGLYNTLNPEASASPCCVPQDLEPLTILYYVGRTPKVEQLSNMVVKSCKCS
Text: as §1, with “efficiency.” for “efficiency. The CAGA motif is present in the promoters of TGFβ-responsive genes (for example, PAI-1), so this vector is of general use for factors signaling through SMAD2 and SMAD3.”
as §2
as §3, with “An equal volume of assay buffer containing the test ligand was added to obtain a final ligand concentration equal to the EC50 determined previously.” left out

[5] = target: T3, human TGFβ2 (Homo sapiens, UniProt P61812); assay: Reporter gene assay in A549 cells (pGL3(CAGA)12), inhibition of TGFβ2 activity; format: cell-based; settings: Summary of Ligand Selectivity; cell names the ligand in this class
T3 construct: purchased PeproTech
T3 sequence (P61812 303-414 limits assumed): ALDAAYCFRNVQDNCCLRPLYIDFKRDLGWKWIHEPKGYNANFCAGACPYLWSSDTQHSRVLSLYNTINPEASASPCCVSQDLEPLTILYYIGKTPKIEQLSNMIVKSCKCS
Text: as §1, §2, §3

[6] = Summary of Ligand Selectivity, cell names the ligand in this class
[7] = third experiment (C-terminal truncation, N70D)

T1 sequence (P01137 279-390 limits assumed): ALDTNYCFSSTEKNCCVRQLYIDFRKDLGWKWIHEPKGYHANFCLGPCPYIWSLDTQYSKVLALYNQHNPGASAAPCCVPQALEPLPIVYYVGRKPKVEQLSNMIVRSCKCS

What does the source list for `NC(=O)NO` [HC, Hydroxycarbamide]?
patients with reductions in spleen size from 25%-50% ([1]; patients treated with HC): up to 35%; toxicity [1]: exacerbate cytopenias

Which toxicity [1] does the source give for `Nc1nc(Cl)nc2c1ncn2[C@H]1C[C@H](O)[C@@H](CO)O1` [cladribine] here?
Its toxicity is “severe but reversible cytopenias”.

And the “spleen responses / response rate” value ([1]; symptomatic splenomegaly)?
The value was “up to 50%”.

With `C#C[C@]1(O)CC[C@H]2[C@@H]3CCC4=Cc5oncc5C[C@]4(C)[C@H]3CC[C@@]21C` [danazol] as the molecule, how does the “response rate / responses in anemia (% of patients)” value [2] read?
Its value is “around 20%”.

B1: TβRIIshort(23-159/D110K)-G2Fc: full-length short-isoform ECD with D110K substitution fused to IgG2 Fc; SEQ ID NO: 25 (unprocessed), 53 (mature) (protein)
chain: TIPPHVQKSVNNDMIVTDNNGAVKFPQLCKFCDVRFSTCDNQKSCMSNCSITSICEKPQEVCVAVWRKNDENITLETVCHDPKLPYHKFILEDAASPKCIMKEKKKPGETFFMCSCSSDECNDNIIFSEEYNTSNPDTGGGVECPPCPAPPVAGPSVFLFPPKPKDTLMISRTPEVTCVVVDVSHEDPEVQFNWYVDGVEVHNAKTKPREEQFNSTFRVVSVLTVVHQDWLNGKEYKCKVSNKGLPAPIEKTISKTKGQPREPQVYTLPPSREEMTKNQVSLTCLVKGFYPSDIAVEWESNGQPENNYKTTPPMLDSDGSFFLYSKLTVDKSRWQQGNVFSCSVMHEALHNHYTQKSLSLSPGK
Which IC50 ([3]; first experiment (D110K)) does the source give for B1 here?
Its IC50 is greater than 73.6 nM.

And the “inhibition of TGFβ1 activity / signaling (in words)” value [3]?
The value was “loss of inhibition”.

And the “Degree of Ligand Inhibition: Moderate (ligand TGFβ3)” value [4, 6]?
The value was “TGFβ3”.

What about the “inhibition of TGFβ3 activity / signaling (in words)” value [4] of the same molecule?
The value was “intermediate inhibition”.

And the “Degree of Ligand Inhibition: Negligible (ligand TGFβ2)” value [5]?
The value was “TGFβ2”.

B2: TβRIIshort(23-159)-G2Fc: wild-type human TβRII short isoform ECD (23-159) fused to human IgG2 Fc; SEQ ID NO: 50, with TPA leader SEQ ID NO: 52 (protein)
chain: TIPPHVQKSVNNDMIVTDNNGAVKFPQLCKFCDVRFSTCDNQKSCMSNCSITSICEKPQEVCVAVWRKNDENITLETVCHDPKLPYHDFILEDAASPKCIMKEKKKPGETFFMCSCSSDECNDNIIFSEEYNTSNPDTGGGVECPPCPAPPVAGPSVFLFPPKPKDTLMISRTPEVTCVVVDVSHEDPEVQFNWYVDGVEVHNAKTKPREEQFNSTFRVVSVLTVVHQDWLNGKEYKCKVSNKGLPAPIEKTISKTKGQPREPQVYTLPPSREEMTKNQVSLTCLVKGFYPSDIAVEWESNGQPENNYKTTPPMLDSDGSFFLYSKLTVDKSRWQQGNVFSCSVMHEALHNHYTQKSLSLSPGK
Which results are given for B2?
IC50 ([3]; first experiment (D110K)): 1.73 nM; Degree of Ligand Inhibition: Potent (ligand TGFβ1) [3, 6]: TGFβ1; IC50 ([4]; first experiment (D110K)): 0.14 nM; Degree of Ligand Inhibition: Potent (ligand TGFβ3) [4, 6]: TGFβ3; Degree of Ligand Inhibition: Negligible (ligand TGFβ2) [5]: TGFβ2

B3: TβRIIshort(35-159)-G2Fc: N-terminally truncated (12 aa) short-isoform ECD fused to IgG2 Fc; SEQ ID NO: 33 (unprocessed), 57 (mature) (protein)
chain: DMIVTDNNGAVKFPQLCKFCDVRFSTCDNQKSCMSNCSITSICEKPQEVCVAVWRKNDENITLETVCHDPKLPYHDFILEDAASPKCIMKEKKKPGETFFMCSCSSDECNDNIIFSEEYNTSNPDTGGGVECPPCPAPPVAGPSVFLFPPKPKDTLMISRTPEVTCVVVDVSHEDPEVQFNWYVDGVEVHNAKTKPREEQFNSTFRVVSVLTVVHQDWLNGKEYKCKVSNKGLPAPIEKTISKTKGQPREPQVYTLPPSREEMTKNQVSLTCLVKGFYPSDIAVEWESNGQPENNYKTTPPMLDSDGSFFLYSKLTVDKSRWQQGNVFSCSVMHEALHNHYTQKSLSLSPGK
Which “Degree of Ligand Inhibition: Moderate (ligand TGFβ1)” value [3, 6] does the source give for B3 here?
The value was “TGFβ1”.

And the “inhibition of TGFβ1 activity / signaling (in words)” value [3]?
Its value is “maintains some TGFβ1 inhibitor effects”.

What about the “Degree of Ligand Inhibition: Negligible (ligand TGFβ3)” value [4, 6] of the same molecule?
The value was “TGFβ3”.

What about the “inhibition of TGFβ3 activity / signaling (in words)” value [4] of the same molecule?
Its value is “greatly diminished ability to inhibit”.

And the “Degree of Ligand Inhibition: Negligible (ligand TGFβ2)” value [5]?
Its value is “TGFβ2”.

B4: TβRIIshort(23-153/N70D)-G2Fc: C-terminally truncated short-isoform ECD with N70D substitution fused to IgG2 Fc; SEQ ID NO: 41 (unprocessed), 61 (mature) (protein)
chain: TIPPHVQKSVNNDMIVTDNNGAVKFPQLCKFCDVRFSTCDNQKSCMSDCSITSICEKPQEVCVAVWRKNDENITLETVCHDPKLPYHDFILEDAASPKCIMKEKKKPGETFFMCSCSSDECNDNIIFSEEYTGGGVECPPCPAPPVAGPSVFLFPPKPKDTLMISRTPEVTCVVVDVSHEDPEVQFNWYVDGVEVHNAKTKPREEQFNSTFRVVSVLTVVHQDWLNGKEYKCKVSNKGLPAPIEKTISKTKGQPREPQVYTLPPSREEMTKNQVSLTCLVKGFYPSDIAVEWESNGQPENNYKTTPPMLDSDGSFFLYSKLTVDKSRWQQGNVFSCSVMHEALHNHYTQKSLSLSPGK
With B4 as the molecule, how does the IC50 [3, 7] read?
Its IC50 is 17.7 nM.

And the “inhibition of TGFβ1 activity / signaling (in words)” value [3]?
The value was “greatly diminished ability to inhibit TGFβ1”.

And the “Degree of Ligand Inhibition: Potent (ligand TGFβ3)” value [4, 6]?
Its value is “TGFβ3”.

What about the “inhibition of TGFβ3 activity / signaling (in words)” value [4] of the same molecule?
The value was “virtually undiminished ability to inhibit TGFβ3”.

What about the “Degree of Ligand Inhibition: Negligible (ligand TGFβ2)” value [5] of the same molecule?
The value was “TGFβ2”.

B5: TβRIIshort(23-153)-G2Fc: C-terminally truncated (6 aa) short-isoform ECD fused to IgG2 Fc; SEQ ID NO: 37 (unprocessed), 59 (mature) (protein)
chain: TIPPHVQKSVNNDMIVTDNNGAVKFPQLCKFCDVRFSTCDNQKSCMSNCSITSICEKPQEVCVAVWRKNDENITLETVCHDPKLPYHDFILEDAASPKCIMKEKKKPGETFFMCSCSSDECNDNIIFSEEYTGGGVECPPCPAPPVAGPSVFLFPPKPKDTLMISRTPEVTCVVVDVSHEDPEVQFNWYVDGVEVHNAKTKPREEQFNSTFRVVSVLTVVHQDWLNGKEYKCKVSNKGLPAPIEKTISKTKGQPREPQVYTLPPSREEMTKNQVSLTCLVKGFYPSDIAVEWESNGQPENNYKTTPPMLDSDGSFFLYSKLTVDKSRWQQGNVFSCSVMHEALHNHYTQKSLSLSPGK
For B5, which IC50 [3, 7] is on record?
Its IC50 is 2.62 nM.

And the IC50 [4, 7]?
Its IC50 is 0.14 nM.

B6: TβRIIshort(29-159)-G2Fc: N-terminally truncated (6 aa) short-isoform ECD fused to IgG2 Fc; SEQ ID NO: 29 (unprocessed), 55 (mature) (protein)
chain: QKSVNNDMIVTDNNGAVKFPQLCKFCDVRFSTCDNQKSCMSNCSITSICEKPQEVCVAVWRKNDENITLETVCHDPKLPYHDFILEDAASPKCIMKEKKKPGETFFMCSCSSDECNDNIIFSEEYNTSNPDTGGGVECPPCPAPPVAGPSVFLFPPKPKDTLMISRTPEVTCVVVDVSHEDPEVQFNWYVDGVEVHNAKTKPREEQFNSTFRVVSVLTVVHQDWLNGKEYKCKVSNKGLPAPIEKTISKTKGQPREPQVYTLPPSREEMTKNQVSLTCLVKGFYPSDIAVEWESNGQPENNYKTTPPMLDSDGSFFLYSKLTVDKSRWQQGNVFSCSVMHEALHNHYTQKSLSLSPGK
Which results are given for B6?
Degree of Ligand Inhibition: Moderate (ligand TGFβ1) [3, 6]: TGFβ1; inhibition of TGFβ1 activity / signaling (in words) [3]: maintains some TGFβ1 inhibitor effects; Degree of Ligand Inhibition: Negligible (ligand TGFβ3) [4, 6]: TGFβ3; inhibition of TGFβ3 activity / signaling (in words) [4]: greatly diminished ability to inhibit; Degree of Ligand Inhibition: Negligible (ligand TGFβ2) [5]: TGFβ2

Reference: US20250042963A1, “METHODS FOR TREATING MYELOPROLIFERATIVE DISORDERS” (Acceleron Pharma Inc., priority 2015, published 2025)
